The target in test [1] is T1, cynomolgus ICOS (cynomolgus, UniProt A0A2K5TQR6 21-140).
T1 construct: also called cyno ICOS; not shown: Carrier of the soluble construct, if any
T1 sequence: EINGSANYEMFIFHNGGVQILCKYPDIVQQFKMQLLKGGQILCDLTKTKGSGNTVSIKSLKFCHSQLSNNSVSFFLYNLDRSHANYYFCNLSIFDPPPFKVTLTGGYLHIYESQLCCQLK
In words: Biacore (SPR), cyno ICOS; format not described.

For test [2], the target named is T2, human ICOS (human, UniProt Q9Y6W8 21-140, limits assumed).
T2 sequence: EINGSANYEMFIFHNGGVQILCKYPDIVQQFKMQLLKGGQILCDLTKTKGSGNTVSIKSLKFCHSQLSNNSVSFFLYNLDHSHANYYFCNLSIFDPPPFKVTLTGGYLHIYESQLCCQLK
In words: Biacore (SPR), human ICOS; format not described.

B1: murine anti-human ICOS mAb clone 422.2 (antibody, V domains shown)
VH: QVQLQQSGPELVRPGESVKISCMGSGYTFTDYAMHWVKQSHAKSLEWIGLISIYSDHTNYNQKFQGKATMTVDKSSSTAYMELARLTSEDSAIYYCGRNNYGNYGWYFDVWGAGTTVTVSS
VL: ENVLTQSPAIMSASPGEKVTMTCSASSSVSYMHWYQQKSITSPKLWIYDTSKLASGVPGRFSGSGSGNSYSLTISSMEAEDVATYYCFQGSGYPYTFGGGTKLEIKR
notes: also called hybridoma clone 422.2
As a reminder, the Kd is the equilibrium constant for the complex coming apart. B1: the dissociation constant Kd in test [1] stood at 4.46 nM; in test [2], 5.7 nM.

B2: murine anti-human ICOS mAb clone 88.2 (antibody, V domains shown)
VH: QVQLQQPGAELVRPGASVKLSCKASGYSFTSYWINWVKQRPGQGLEWIGNIYPSDSYTNYNQMFKDKATLTVDKSSNTAYMQLTSPTSEDSAVYYCTRWNLSYYFDNNYYLDYWGQGTTLTVSS
VL: QAVVTQESALTTSPGETVTLTCRSSTGAVTTSNYANWVQEKPDHLFTGLIGGTNNRAPGVPARFSGSLIGDKAALTITGAQTEDEAIYFCALWYNNHLVFGGGTKLTVL
For B2, the Kd worked out at 23 nM in test [1] and 31 nM in test [2].
